Experimental data: US20030073084A1

Target: wild type p53 (human cells) (human) (UniProt P04637)
Experiment: cell-based or functional assay

Substance: p28^ING1 (alternative splice variant of human ING1)
- WAF1 mRNA level in HT1080 cells (Northern blot): 4 to 6 times
